{"source": "paper PMC2846628", "origin": "cited, not measured here", "target": "Cdc25 phosphopeptide (Homo sapiens)", "experiment": "NMR titration", "data": [{"substance": "Pin1 1-163 (from UniProt Q13526)", "values": [{"measurement": "Kd", "value": 8, "unit": "µM"}]}]}
